Laboratory results from publication PMC9482650, “Quantitative fragmentomics allow affinity mapping of interactomes” (Nature Communications, 2022).

B1: SLC22A9, Q8IVM8 (peptide)
chain: EDPRVEVTQF

molecular target: T1, APBA2_1, Q99767; experiment: holdup assay; parameters: key: below the threshold = too weak to quantify, mostly under pKd 3.1 to 4; settings: plain residues with an end cap or a label only (N-terminal biotin on a linker: ado-ado)
T1 sequence (Q99767 563-664, limits assumed, looked up): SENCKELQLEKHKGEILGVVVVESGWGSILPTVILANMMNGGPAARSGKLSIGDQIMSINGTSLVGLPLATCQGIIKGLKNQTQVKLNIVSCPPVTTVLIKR

| Binder | pKd |
| --- | --- |
| B1 | below the threshold |

molecular target: T2, APBA3_1, O96018; experiment: holdup assay; parameters: key: below the threshold = too weak to quantify, mostly under pKd 3.1 to 4; settings: plain residues with an end cap or a label only (N-terminal biotin on a linker: ado-ado)
T2 sequence (O96018 389-490, limits assumed, looked up): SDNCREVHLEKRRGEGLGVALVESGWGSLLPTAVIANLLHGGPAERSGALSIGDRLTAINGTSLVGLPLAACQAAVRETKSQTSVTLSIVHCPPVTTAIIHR

| Binder | pKd |
| --- | --- |
| B1 | below the threshold |

molecular target: T3, ARHGEF11, O15085; experiment: holdup assay; parameters: key: below the threshold = too weak to quantify, mostly under pKd 3.1 to 4; settings: plain residues with an end cap or a label only (N-terminal biotin on a linker: ado-ado)
T3 sequence (O15085 42-136, limits assumed, looked up): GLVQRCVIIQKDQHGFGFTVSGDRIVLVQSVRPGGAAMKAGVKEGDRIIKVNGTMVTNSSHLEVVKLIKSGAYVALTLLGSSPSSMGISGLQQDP

| Binder | pKd |
| --- | --- |
| B1 | below the threshold |

molecular target: T4, CARD11, Q9BXL7; experiment: holdup assay; parameters: key: below the threshold = too weak to quantify, mostly under pKd 3.1 to 4; settings: plain residues with an end cap or a label only (N-terminal biotin on a linker: ado-ado)
T4 sequence (Q9BXL7 662-765, limits assumed, looked up): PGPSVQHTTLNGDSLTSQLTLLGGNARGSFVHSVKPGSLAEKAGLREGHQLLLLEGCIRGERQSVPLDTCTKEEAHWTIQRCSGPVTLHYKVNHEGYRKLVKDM

| Binder | pKd |
| --- | --- |
| B1 | below the threshold |

molecular target: CASK, O14936; experiment: holdup assay; parameters: key: below the threshold = too weak to quantify, mostly under pKd 3.1 to 4; settings: plain residues with an end cap or a label only (N-terminal biotin on a linker: ado-ado)
Sequence (O14936 487-570): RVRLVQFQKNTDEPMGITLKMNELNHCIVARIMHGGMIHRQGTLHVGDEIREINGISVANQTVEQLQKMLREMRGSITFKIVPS

| Binder | pKd |
| --- | --- |
| B1 | below the threshold |

molecular target: T5, FRMPD1, Q5SYB0; experiment: holdup assay; parameters: key: below the threshold = too weak to quantify, mostly under pKd 3.1 to 4; settings: plain residues with an end cap or a label only (N-terminal biotin on a linker: ado-ado)
T5 sequence (Q5SYB0 52-145, limits assumed, looked up): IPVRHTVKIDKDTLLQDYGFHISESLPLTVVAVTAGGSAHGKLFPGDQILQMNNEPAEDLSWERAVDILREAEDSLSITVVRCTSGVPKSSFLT

| Binder | pKd |
| --- | --- |
| B1 | below the threshold |

molecular target: FRMPD2_1, Q68DX3; experiment: holdup assay; parameters: key: below the threshold = too weak to quantify, mostly under pKd 3.1 to 4; settings: plain residues with an end cap or a label only (N-terminal biotin on a linker: ado-ado)
Sequence (Q68DX3 770-861): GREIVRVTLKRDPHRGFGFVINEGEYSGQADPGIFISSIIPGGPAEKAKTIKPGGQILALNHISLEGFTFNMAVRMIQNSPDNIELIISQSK

| Binder | pKd |
| --- | --- |
| B1 | below the threshold |

molecular target: GRIP2_4, Q9C0E4; experiment: holdup assay; parameters: key: below the threshold = too weak to quantify, mostly under pKd 3.1 to 4; settings: plain residues with an end cap or a label only (N-terminal biotin on a linker: ado-ado)
Sequence (Q9C0E4 446-548): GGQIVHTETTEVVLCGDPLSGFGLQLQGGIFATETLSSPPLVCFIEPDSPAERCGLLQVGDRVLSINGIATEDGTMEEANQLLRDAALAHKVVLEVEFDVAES

| Binder | pKd |
| --- | --- |
| B1 | below the threshold |

molecular target: GRIP2_7, Q9C0E4; experiment: holdup assay; parameters: key: below the threshold = too weak to quantify, mostly under pKd 3.1 to 4; settings: plain residues with an end cap or a label only (N-terminal biotin on a linker: ado-ado)
Sequence (Q9C0E4 934-1023): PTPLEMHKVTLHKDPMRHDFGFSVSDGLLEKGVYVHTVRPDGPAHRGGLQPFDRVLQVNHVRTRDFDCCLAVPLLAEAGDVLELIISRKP

| Binder | pKd |
| --- | --- |
| B1 | below the threshold |

molecular target: T6, HTRA3, P83110; experiment: holdup assay; parameters: key: below the threshold = too weak to quantify, mostly under pKd 3.1 to 4; settings: plain residues with an end cap or a label only (N-terminal biotin on a linker: ado-ado)
T6 sequence (P83110 354-453, limits assumed, looked up): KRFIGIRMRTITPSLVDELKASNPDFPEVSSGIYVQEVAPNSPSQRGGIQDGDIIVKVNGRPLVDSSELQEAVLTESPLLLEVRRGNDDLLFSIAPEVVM

| Binder | pKd |
| --- | --- |
| B1 | below the threshold |

molecular target: MAGI1_1, Q96QZ7; experiment: holdup assay; parameters: key: below the threshold = too weak to quantify, mostly under pKd 3.1 to 4; settings: plain residues with an end cap or a label only (N-terminal biotin on a linker: ado-ado)
Sequence (Q96QZ7 1-106): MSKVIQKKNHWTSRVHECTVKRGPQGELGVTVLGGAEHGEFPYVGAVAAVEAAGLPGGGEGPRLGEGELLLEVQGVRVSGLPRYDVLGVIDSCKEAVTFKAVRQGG

| Binder | pKd |
| --- | --- |
| B1 | below the threshold |

molecular target: MAGI2_6, Q86UL8; experiment: holdup assay; parameters: key: below the threshold = too weak to quantify, mostly under pKd 3.1 to 4; settings: plain residues with an end cap or a label only (N-terminal biotin on a linker: ado-ado)
Sequence (Q86UL8 1141-1229): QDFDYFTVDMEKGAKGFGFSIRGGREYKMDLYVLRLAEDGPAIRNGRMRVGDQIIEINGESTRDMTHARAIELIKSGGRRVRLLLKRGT

| Binder | pKd |
| --- | --- |
| B1 | 3.87 |

molecular target: T7, MPP6, Q9NZW5; experiment: holdup assay; parameters: key: below the threshold = too weak to quantify, mostly under pKd 3.1 to 4; settings: plain residues with an end cap or a label only (N-terminal biotin on a linker: ado-ado)
T7 sequence (Q9NZW5 125-219, limits assumed, looked up): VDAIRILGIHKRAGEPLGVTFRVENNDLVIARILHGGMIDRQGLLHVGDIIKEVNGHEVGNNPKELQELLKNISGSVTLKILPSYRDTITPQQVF

| Binder | pKd |
| --- | --- |
| B1 | below the threshold |

molecular target: T8, MPP7, Q5T2T1; experiment: holdup assay; parameters: key: below the threshold = too weak to quantify, mostly under pKd 3.1 to 4; settings: plain residues with an end cap or a label only (N-terminal biotin on a linker: ado-ado)
T8 sequence (Q5T2T1 134-230, limits assumed, looked up): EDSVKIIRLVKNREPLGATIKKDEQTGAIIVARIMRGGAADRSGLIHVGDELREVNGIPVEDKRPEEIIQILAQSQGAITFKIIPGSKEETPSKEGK

| Binder | pKd |
| --- | --- |
| B1 | below the threshold |

molecular target: T9, NHERF3_4, Q5T2W1; experiment: holdup assay; parameters: key: below the threshold = too weak to quantify, mostly under pKd 3.1 to 4; settings: plain residues with an end cap or a label only (N-terminal biotin on a linker: ado-ado)
T9 sequence (Q5T2W1 373-468, limits assumed, looked up): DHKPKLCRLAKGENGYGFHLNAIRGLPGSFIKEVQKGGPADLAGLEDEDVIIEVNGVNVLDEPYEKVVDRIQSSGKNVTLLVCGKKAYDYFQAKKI

| Binder | pKd |
| --- | --- |
| B1 | 4.58 |

molecular target: T10, PDZD7_3, Q9H5P4; experiment: holdup assay; parameters: key: below the threshold = too weak to quantify, mostly under pKd 3.1 to 4; settings: plain residues with an end cap or a label only (N-terminal biotin on a linker: ado-ado)
T10 sequence (Q9H5P4 857-944, limits assumed, looked up): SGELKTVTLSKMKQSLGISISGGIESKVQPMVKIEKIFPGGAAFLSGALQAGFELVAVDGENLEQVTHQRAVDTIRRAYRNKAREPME

| Binder | pKd |
| --- | --- |
| B1 | 4.23 |

molecular target: T11, RHPN1, Q8TCX5; experiment: holdup assay; parameters: key: below the threshold = too weak to quantify, mostly under pKd 3.1 to 4; settings: plain residues with an end cap or a label only (N-terminal biotin on a linker: ado-ado)
T11 sequence (Q8TCX5 508-602, limits assumed, looked up): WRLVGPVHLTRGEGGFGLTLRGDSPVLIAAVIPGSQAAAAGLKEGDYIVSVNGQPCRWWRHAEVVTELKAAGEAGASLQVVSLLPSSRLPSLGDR

| Binder | pKd |
| --- | --- |
| B1 | 4.4 |

molecular target: T12, SNTA1, Q13424; experiment: holdup assay; parameters: key: below the threshold = too weak to quantify, mostly under pKd 3.1 to 4; settings: plain residues with an end cap or a label only (N-terminal biotin on a linker: ado-ado)
T12 sequence (Q13424 82-180, limits assumed, looked up): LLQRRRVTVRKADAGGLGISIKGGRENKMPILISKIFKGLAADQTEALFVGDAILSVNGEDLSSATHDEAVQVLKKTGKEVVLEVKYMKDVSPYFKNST

| Binder | pKd |
| --- | --- |
| B1 | below the threshold |

molecular target: T13, SNTG1, Q9NSN8; experiment: holdup assay; parameters: key: below the threshold = too weak to quantify, mostly under pKd 3.1 to 4; settings: plain residues with an end cap or a label only (N-terminal biotin on a linker: ado-ado)
T13 sequence (Q9NSN8 52-150, limits assumed, looked up): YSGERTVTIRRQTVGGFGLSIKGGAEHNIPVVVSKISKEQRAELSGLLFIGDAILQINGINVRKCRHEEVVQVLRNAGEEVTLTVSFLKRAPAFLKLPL

| Binder | pKd |
| --- | --- |
| B1 | below the threshold |

molecular target: TJP1_2, Q07157; experiment: holdup assay; parameters: key: below the threshold = too weak to quantify, mostly under pKd 3.1 to 4; settings: plain residues with an end cap or a label only (N-terminal biotin on a linker: ado-ado)
Sequence (Q07157 181-274): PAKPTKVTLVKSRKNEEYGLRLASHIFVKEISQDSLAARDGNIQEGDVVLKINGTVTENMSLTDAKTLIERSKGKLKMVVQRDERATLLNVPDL

| Binder | pKd |
| --- | --- |
| B1 | below the threshold |

molecular target: T14, TJP3_3, O95049; experiment: holdup assay; parameters: key: below the threshold = too weak to quantify, mostly under pKd 3.1 to 4; settings: plain residues with an end cap or a label only (N-terminal biotin on a linker: ado-ado)
T14 sequence (O95049 375-456, limits assumed, looked up): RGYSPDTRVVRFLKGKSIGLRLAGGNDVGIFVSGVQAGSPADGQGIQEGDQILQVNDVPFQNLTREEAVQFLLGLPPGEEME

| Binder | pKd |
| --- | --- |
| B1 | below the threshold |

molecular target: T15, TX1BP3, O14907; experiment: holdup assay; parameters: key: below the threshold = too weak to quantify, mostly under pKd 3.1 to 4; settings: plain residues with an end cap or a label only (N-terminal biotin on a linker: ado-ado)
T15 sequence (O14907 10-122, limits assumed, looked up): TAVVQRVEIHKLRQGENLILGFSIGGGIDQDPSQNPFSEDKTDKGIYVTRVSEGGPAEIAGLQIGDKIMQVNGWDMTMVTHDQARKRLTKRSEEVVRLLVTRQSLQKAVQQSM

| Binder | pKd |
| --- | --- |
| B1 | below the threshold |
